The subject of the data set is MS2 coat protein. In words: apparent KD of MS2 coat protein; designed switch direction (-1 OFF switch, 1 ON switch): -1; higher = weaker reporter binding. The method, boiled down: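 Apparent KD, taken as the median over clusters for each design, was obtained by curve-fitting normalised cluster fluorescence. Designed RNA switches had been transcribed on Illumina chips by stalled E. coli RNA polymerase and titrated with SNAP-549-labelled MS2 coat protein, doubling from 0.7 or 1.5 nM to 3 µM.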

The mark [1] stands for this setting: input ligand: microRNA oligo, concentration not stated.
Setting [2] is: Eterna round: R95, input ligand: microRNA oligo, concentration not stated.
The mark [3] stands for this setting: Eterna round: R95, input ligand: FMN 200 uM.
Where [4] appears, read: Eterna round: R95, input ligand: none.

Consider “GAUCCACAUGAGGAUCACCCAUGUUAGGAUAUUCAGCCUUGGUCACGGGAGUCAGGGCGGAGAAGGAACCCUUU [Eternabot (L2) Solution 16] (Eterna round: R97, puzzle: Exclusion 1)”, for which the “apparent KD of MS2 coat protein” value runs as follows: (input ligand: FMN 200 uM) 14.4 nM; (input ligand: none) 13 nM.

As to “GAUCCUCAGACGGACGUCACGAAACAUGAGGAUCACCCAUGUGAGGAUAUCUCCAAAAGGUCGGCAGAGAAGGCACCAUAACAA [Eternabot solution 19] (Eterna round: R96, puzzle: Exclusion NG 3)”, the “apparent KD of MS2 coat protein” value runs as follows: (input ligand: FMN 200 uM) 261 nM; under setting [1], 131 nM; (input ligand: none) 139 nM.

As for “GAUCGUUUAGAGGAUAUCGUGCUAAACAUUACAUGAGAAGGCUAGACAUGAGGAUCACCCAUGUAUGCUCGUGA [Exclusion 6 - 8:b] (puzzle: Exclusion 6)”, the “apparent KD of MS2 coat protein” value under setting [2] stood at 14.8 nM.

For “GAUCUGUAAGGAUAUCGUGCAAGUUUCAAAAGAGGCUUGUGCGAGAAGGUACAUGAGGAUCACCCAUGUAGGUU [Omei Ex4 B15] (Eterna round: R97, puzzle: Exclusion 4)”, the “apparent KD of MS2 coat protein” value is, setting by setting: (input ligand: FMN 200 uM) 52.6 nM; (input ligand: none) 40.1 nM.

Regarding “GAUGCACAUGAGGAUCACCCAUGUGAGGAUAUCAUUCCUAGAUCAGUCGGUCAGGAAAUGAGAAGGCGCCGGGA [Eternabot (L2) Solution 5] (Eterna round: R97, puzzle: Exclusion 1)”, the “apparent KD of MS2 coat protein” value (input ligand: FMN 200 uM) came out at 28.6 nM and the “apparent KD of MS2 coat protein” value (input ligand: none) is 23.6 nM.

Take “GAUGUGGGUUUCCGGAGUAACAUGAGGAUCACCCAUGUAGAAGUUGGAGGGAUCAAGCUUUUUGGUCGUCAUAUGUG [JR_SV3TOV1_Sub052] (puzzle: Sensor v3, turn-off variant 1)”: the “apparent KD of MS2 coat protein” value reads like this: under setting [3], 288 nM; under setting [2], 246 nM; under setting [4], 422 nM.

For “GAUUAUGCGAGCUUUAGGGACAUGAGGAUCACCCAUGUUCGUCUUAUUAAUCUAGGUGCGCUAACAUACCUAAAUCU [JMF 47] (puzzle: Sensor v3, turn-off variant 1)”, the “apparent KD of MS2 coat protein” value runs as follows: under setting [3], 21.5 nM; under setting [2], 32 nM; under setting [4], 23.7 nM.

As to “GAUUAUGCGAGCUUUAGGGACAUGAGGAUCACCCAUGUUCGUCUUAUUAGUCUGAAUACGCUGACAUACCUAAAUCU [JMF 95] (puzzle: Sensor v3, turn-off variant 1)”, the “apparent KD of MS2 coat protein” value by setting is: under setting [3], 16.3 nM; under setting [2], 19.5 nM; under setting [4], 19.2 nM.

As to “GAUUAUGCGAGCUUUAGGGACAUGAGGAUCACCCAUGUUCGUCUUAUUAGUCUGGGUGCACUGACAUACCUAAAUCU [JMF 93] (puzzle: Sensor v3, turn-off variant 1)”, the “apparent KD of MS2 coat protein” value reads like this: under setting [3], 169 nM; under setting [2], 202 nM; under setting [4], 320 nM.

Regarding “GAUUAUGCGAGCUUUAGGGACAUGAGGAUCACCCAUGUUCGUCUUAUUGAUCUGGAUACACUAACAUACCUAAAUCU [JMF 13] (puzzle: Sensor v3, turn-off variant 1)”, the “apparent KD of MS2 coat protein” value is 26.8 nM under setting [3], 32.3 nM under setting [2] and 25.2 nM under setting [4].

On to “GAUUAUGCGAGCUUUAGGGACAUGAGGAUCACCCAUGUUCGUCUUAUUGAUCUGGGUACACUGACAUACCUAAAUCU [JMF 70] (puzzle: Sensor v3, turn-off variant 1)”, for which the “apparent KD of MS2 coat protein” value runs as follows: under setting [3], 88.8 nM; under setting [2], 115 nM; under setting [4], 110 nM.

On to “GAUUCACAUGACUGUCUAUACAUGAGGAUCACCCAUGUUUGUUUUUAUUUUUUUUUGCUUUUUAGUCGUCUUAUUAU [1 hard RNA] (Eterna round: R97, puzzle: Sensor, turn-off variant 1)”, for which the “apparent KD of MS2 coat protein” value was found to be 37.1 nM (input ligand: FMN 200 uM) and 35.2 nM (input ligand: none).

Consider “GAUUCGCGAGGAUAUACAGUCGAGUCCAUUACGUGUCUGGGACUUGAGGAUCACCCAAGUAGAAGGCGUCUCAU [salish99_ex2_r4_638] (Eterna round: R97, puzzle: Exclusion 2)”, for which the “apparent KD of MS2 coat protein” value runs as follows: (input ligand: FMN 200 uM) 55.6 nM; (input ligand: none) 57.8 nM.

“GAUUGACAUGAGGAUCACCCAUGUGAGGAUAUCGGCUGGACCGUGUUGGCUUGCCUCUCGAGAAGGCGCAUAGG [Exclusion 1 V52] (puzzle: Exclusion 1)”: the “apparent KD of MS2 coat protein” value under setting [3] was 38.8 nM, the “apparent KD of MS2 coat protein” value under setting [2] is 35 nM and the “apparent KD of MS2 coat protein” value under setting [4] is 43.8 nM.

Consider “GAUUUUCAUGUAGGAUAUUCCACACAACAACUGGGAGAAGGACAUGAGGAUCACCCAUGUCCUACAACAACUUCAACAAACACA [Weak Sauce] (Eterna round: R96, puzzle: Exclusion NG 1)”, for which the “apparent KD of MS2 coat protein” value came out at 15.8 nM (input ligand: FMN 200 uM), 9.75 nM under setting [1] and 11.4 nM (input ligand: none).

Take “GCAAGCUUUAUCAAUAAGAACAUGAGGAUCACCCAUGUAUAAGGUAUUACUUUUGGGCUCUUUAGUGCUCGUCUUAU [JR_STOV1_Sub034] (Eterna round: R97, puzzle: Sensor, turn-off variant 1)”: the “apparent KD of MS2 coat protein” value reads like this: (input ligand: FMN 200 uM) 47.4 nM; (input ligand: none) 51.5 nM.

Regarding “GCAAGCUUUAUCACUAUGAACAUGAGGAUCACCCAUGUAUAAGGUAUUACUUUUGGGCUCUUUAGUGCUCGUCUUAU [JR_STOV1_Sub033] (Eterna round: R97, puzzle: Sensor, turn-off variant 1)”, the “apparent KD of MS2 coat protein” value runs as follows: (input ligand: FMN 200 uM) 26.2 nM; (input ligand: none) 26.7 nM.

In the case of “GCAAGCUUUUAGAUUUUCAACAUGAGGAUCACCCAUGUUCGUCUUGUGCUCGGGCUUGGGCGGUGUCCGGGUUUGGG [JL TOV1 3.76 sellena mod] (Eterna round: R97, puzzle: Sensor, turn-off variant 1)”, the “apparent KD of MS2 coat protein” value worked out at 36.2 nM (input ligand: FMN 200 uM) and 38.3 nM (input ligand: none).

For “GCAAUGAGUGUGAGGAUAUGCUGGUCCUUGGAUCAGCAGAAGGCACAUGAGGAUCACCCAUGUGAAAACAUUGC [Mat - Exclusion 4 - JL Mod - D63] (puzzle: Brourd's mod of Exclusion 4)”, the “apparent KD of MS2 coat protein” value under setting [3] is 147 nM, the “apparent KD of MS2 coat protein” value under setting [2] was found to be 17.4 nM and the “apparent KD of MS2 coat protein” value under setting [4] came out at 23.1 nM.

For “GCACCGUCAGGAUAUACAUGAGGAUCACCCAUGUGACCACCACUGUUCAUGACGCAUUGUAGAAGGGACGGAAA [Eternabot (L2) Solution 47] (Eterna round: R97, puzzle: Exclusion 3)”, the “apparent KD of MS2 coat protein” value by setting is: (input ligand: FMN 200 uM) 250 nM; (input ligand: none) 54.7 nM.

For “GCACGAAGUGUAGGAUAUCUGUGCGAUUAGCUCAGAGAAGGACACAUGAGGAUCACCCAUGUGUUCCAAUACUCAAAUACGUGC [Eli exng1 - 0622] (Eterna round: R96, puzzle: Exclusion NG 1)”, the “apparent KD of MS2 coat protein” value (input ligand: FMN 200 uM) was 10.1 nM, the “apparent KD of MS2 coat protein” value under setting [1] stood at 9.09 nM and the “apparent KD of MS2 coat protein” value (input ligand: none) was determined as 12.2 nM.

For the sequence “GCACGAAGUGUAGGAUAUCUGUGCGAUUAGCUCAGAGAAGGACACAUGAGGAUCACCCAUGUGUUCCAAUCACAAAAUACGUGC [Eli exng1 - 060] (Eterna round: R96, puzzle: Exclusion NG 1)”, the “apparent KD of MS2 coat protein” value runs as follows: (input ligand: FMN 200 uM) 11.7 nM; under setting [1], 11 nM; (input ligand: none) 11.9 nM.

On to “GCACGAAGUGUAGGAUAUCUGUGCGAUUAGCUCAGAGAAGGACACAUGAGGAUCACCCAUGUGUUCCAGCGAAAGCAAACGUGC [Eli exng1 - 055] (Eterna round: R96, puzzle: Exclusion NG 1)”, for which the “apparent KD of MS2 coat protein” value is, setting by setting: (input ligand: FMN 200 uM) 9.68 nM; under setting [1], 7.78 nM; (input ligand: none) 12.9 nM.

Take “GCACGACAUCAGGAUAUGACUAGCUUCGGCUAGUCAGAAGGGAUGACAUGAGGAUCACCCAUGUGAUCACGUGC [E6/2-B1] (Eterna round: R97, puzzle: Exclusion 6)”: the “apparent KD of MS2 coat protein” value is, setting by setting: (input ligand: FMN 200 uM) 122 nM; (input ligand: none) 91.8 nM.

“GCACGGAAUGUAGGAUAUUAGUGCGAUUAGCACUGAGAAGGACAUGAGGAUCACCCAUGUAAUAACAUAAUAAACCUUCCGUGC [Eli exng1 - 046] (Eterna round: R96, puzzle: Exclusion NG 1)”: the “apparent KD of MS2 coat protein” value is 12.1 nM (input ligand: FMN 200 uM), 8.27 nM under setting [1] and 13.6 nM (input ligand: none).

With “GCACGGAGUGCAGGAUAUCUGUGCGAUUAGCUCAGAGAAGGGCACAUGAGGAUCACCCAUGUGUAUAAAACACAAAAUCCGUGC [Eli exng1 - 066] (Eterna round: R96, puzzle: Exclusion NG 1)”, the “apparent KD of MS2 coat protein” value is, setting by setting: (input ligand: FMN 200 uM) 22.1 nM; under setting [1], 10.2 nM; (input ligand: none) 14.5 nM.

Regarding “GCACGGAGUGUAGGAUAUCUGUGCGAUUAGCUCAGAGAAGGACAUGAGGAUCACCCAUGUGUGUUCCAAUACUCAAAUCCGUGC [Eli exng1 - 064] (Eterna round: R96, puzzle: Exclusion NG 1)”, the “apparent KD of MS2 coat protein” value is 710 nM (input ligand: FMN 200 uM), 55.4 nM under setting [1] and 52.1 nM (input ligand: none).

With “GCACGGAGUGUAGGAUAUUAGUGCGAUUAGCACUGAGAAGGACAUGAGGAUCACCCAUGUUCCUCAAUAACAUACCUUCCGUGC [Eli exng1 - 042] (Eterna round: R96, puzzle: Exclusion NG 1)”, the “apparent KD of MS2 coat protein” value under setting [1] amounted to 9.5 nM.

For the sequence “GCACGGAGUGUAGGAUAUUAGUGCGAUUAGCACUGAGAAGGACAUGAGGAUCACCCAUGUUCCUCAUAAAUUAGCCUUCCGUGC [Eli exng1 - 037] (Eterna round: R96, puzzle: Exclusion NG 1)”, the “apparent KD of MS2 coat protein” value (input ligand: FMN 200 uM) was 27.4 nM, the “apparent KD of MS2 coat protein” value under setting [1] was found to be 21 nM and the “apparent KD of MS2 coat protein” value (input ligand: none) amounted to 27 nM.

Source of the values: the supplement of paper PMC9170038.
